From publication PMC7598594 (Toxins, 2020)

How the values were obtained:
Assay in all cases: ELISA
Conditions in all cases: both partners purified
[1] = target: T1, light chain of BoNT/E1 (LC/E) (Clostridium botulinum, BoNT/E subtype …, UniProt Q00496)
T1 construct: source: E. coli BL21(DE3), purified (Ni-NTA, Streptactin, SEC)

[2] = target: T2, carboxyl terminal domain of the BoNT/E heavy chain (HCE) (Clostridium botulinum, BoNT/E (subtype …))
[3] = target: T1, light chain of BoNT/E1 (LC/E); remark: listed apart in the source
[4] = target: T2, carboxyl terminal domain of the BoNT/E …; remark: listed apart in the source

T1 sequence (Q00496 2-403): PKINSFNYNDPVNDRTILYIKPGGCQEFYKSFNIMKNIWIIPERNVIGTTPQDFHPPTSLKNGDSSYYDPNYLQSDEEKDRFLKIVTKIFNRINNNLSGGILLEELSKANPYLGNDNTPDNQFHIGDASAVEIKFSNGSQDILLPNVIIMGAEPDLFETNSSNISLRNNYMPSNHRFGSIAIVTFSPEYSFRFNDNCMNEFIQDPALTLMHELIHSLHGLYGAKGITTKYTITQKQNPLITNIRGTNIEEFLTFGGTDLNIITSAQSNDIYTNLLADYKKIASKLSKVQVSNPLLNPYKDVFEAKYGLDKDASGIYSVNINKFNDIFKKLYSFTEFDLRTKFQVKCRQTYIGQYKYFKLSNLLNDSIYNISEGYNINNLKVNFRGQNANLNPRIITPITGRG

Binder | binding result [1] | further results
JSI-A4 (VHH, source: E. coli, purified) VHH: SGGGLVQAGGSLRLSCAASGLTFSDTAVGWFRQAPGKEREFVAAAVIWSGVNTRYADSVRGRFTISRDSAKNTVYLQMNTLKPEDTAIYYCAAGRGAAAFPTDRSQYVYWGQGTQVTVSS | no binding (tested: 125 nM) | –
JLE-G6 (VHH, source: E. coli, purified) VHH: QLQLVETGGGLVKPGGSLRLSCVVSGFTFDDYRMAWVRQAPGKELEWVSSIDSWSINTYYEDSVKGRFTISTDNAKNTLYLQMSSLKPEDTAVYYCAAEDRLGVPTINAHPSKYDYNYWGQGTQVTVSS | – | EC50 [2]: 3 nM
JSI-C7 (VHH, source: E. coli, purified) VHH: SGGGLMQAGGSLRLACAASGRPFSTYFMGWFRQAPGKERDFVAVIDWSDGSTDYADSVKGRFTISRDNAKNTVYLQMNSLKPEDTAVYYCAARGSYLYTWPLEPDEYDYWGQGTQVTVSS | no binding (tested: 125 nM) | –
JLG-G12 (VHH, source: E. coli, purified) VHH: QLQLVETGGGLVQAGGSLRLSCAASGRTFSSYAVGWFRQAPGKEREFVAAISWSGSYAYYADSVKGRFTISRDNAKNTVYLQMNSLKPEDTAVYYCNGDLEGYSNHETGDYWGQGTQVTVSS | – | EC50 [3]: 2 nM
JSI-H9 (VHH, source: E. coli, purified) VHH: SGGGSVQAGGSLGLTCQGSGDAVRRGWFRQAPGKEREFVAAITSYGGTTFYADSVKGRFTVSRDNAKNTVYLQMISLKPEDTAVYYCAAASRPTGWPYEYDVWGQGTQVTVSS | no binding (tested: 125 nM) | –
JSI-F2 (VHH, source: E. coli, purified) VHH: SGGGLVQAGGSLRLSCAASGGTVSKYPMGWFRQAPGQEREFVAALSRDTDYTYYADSVKGRFTISRDNAKNTVYLQMNSLKREDTALYYCAAGSTDLKYSASVYADDYDYWGQGTQVTVSS | no binding (tested: 125 nM) | EC50 [4]: 2 nM
JLF-H5 (VHH, source: E. coli, purified) VHH: QVQLVESGGGSVQPGGSLRLSCVASGFTFTNYAMAWVRQVSGKGLEGVAAISSEGFIYIPDSVKGRFTISRDNAKNTVYLQMDNLQSEDTAIYHCAAVDWKRVAAMNSYNMDYWGKGTPVTVSA | – | EC50 [3]: 10 nM
JSI-F6 (VHH, source: E. coli, purified) VHH: SGGGLVQAGGSLRVSCAASGRTFSTYAMGWFRQAPGKEREFVAAITKSGDYAYYADAVKGRFTISRDNAKNTVSLQMNSLKDEDTAVYYCAAHRSPLYSASVYDRDYDYWGQGTQVTVSS | no binding (tested: 125 nM) | EC50 [4]: 3 nM
JSI-G9 (VHH, source: E. coli, purified) VHH: SGGGMVQAGGSLRLSCAASGRTASLDGMGWFRQAPGKEREFVGSINWRIGTTYYIDSVQGRFTISRDNARNTVYLQMISLKPEDTAVYYCAARLRRTDLISSPASYEYWGHGTQVTVSS | no binding (tested: 125 nM) | –
